According to article PMC2077811 (The Journal of biological chemistry, 2006):

Target: T1, hRad51 (human, UniProt Q06609 1-339)
T1 sequence (looked up): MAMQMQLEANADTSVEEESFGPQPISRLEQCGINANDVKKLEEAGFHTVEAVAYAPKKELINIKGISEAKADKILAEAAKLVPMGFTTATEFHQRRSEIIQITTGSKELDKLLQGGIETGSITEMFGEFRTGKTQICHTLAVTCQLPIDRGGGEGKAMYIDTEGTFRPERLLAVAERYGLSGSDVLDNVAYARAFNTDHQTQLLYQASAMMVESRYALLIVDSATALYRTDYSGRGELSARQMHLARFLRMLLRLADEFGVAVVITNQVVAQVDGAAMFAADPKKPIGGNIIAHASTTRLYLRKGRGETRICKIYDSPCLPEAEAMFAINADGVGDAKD
Assay: pull-down

binding result: binds
B1: GST-BRC3/4 (domain or fragment, human, UniProt P51587 1409-1596, looked up)
chain: LTATKTEQNIKDFETSDTFFQTASGKNISVAKESFNKIVNFFDQKPEELHNFSLNSELHSDIRKNKMDILSYEETDIVKHKILKESVPVGTGNQLVTFQGQPERDEKIKEPTLLGFHTASGKKVKIAKESLDKVKNLFDEKEQGTSEITSFSHQWAKTLKYREACKDLELACETIEITAAPKCKEMQN
